Values quoted from earlier work, collected in PMC7922473.
pKd: −log10 of the molar value.

Molecular target: PrPC (cellular prion protein) (UniProt P04156)

CGGTGGGGCAATTTCTCCTACTGT [PrPC aptamer (PrPC-Apt)]
pKd: 7.80
